The values below come from the FLAb antibody collection.

The series can be described thus: patients with anti-drug antibodies; higher = more immunogenic.

B1: unnamed (protein)
chain 1: EVQLVESGGGLVQPGGSLRLSCAASGFTFSPFAMSWVRQAPGKGLEWVAKISPGGSWTYYSDTVTGRFTISRDNAKNSLYLQMNSLRAEDTAVYYCARQLWGYYALDIWGQGTTVTVSS
chain 2: EIVLTQSPATLSLSPGERATLSCSASISVSYMYWYQQKPGQAPRLLIYDMSNLASGIPARFSGSGSGTDFTLTISSLEPEDFAVYYCMQWSGYPYTFGGGTKVEIK
Consider B1, for which the “patients with anti-drug antibodies” value was 2.9%.

B2: unnamed (protein)
chain 1: QVQLQQSDAELVKPGASVKISCKASGYTFTDHAIHWAKQKPEQGLEWIGYISPGNDDIKYNEKFKGKATLTADKSSSTAYMQLNSLTSEDSAVYFCKRSYYGHWGQGTTLTVSS
chain 2: DIQMTQSPASLSVSVGETVTITCRASENIYSNLAWYQQKQGKSPQLLVYAATNLADGVPSRFSGSGSGTQYSLKINSLQSEDFGSYYCQHFWGTPYTFGGGTRLEIK
As to B2, the “patients with anti-drug antibodies” value came out at 55%.

B3: unnamed (protein)
chain 1: QVQLQQSGTVLARPGASVKMSCKASGYSFTRYWMHWIKQRPGQGLEWIGAIYPGNSDTSYNQKFEGKAKLTAVTSASTAYMELSSLTHEDSAVYYCSRDYGYYFDFWGQGTTLTVSS
chain 2: QIVSTQSPAIMSASPGEKVTMTCSASSSRSYMQWYQQKPGTSPKRWIYDTSKLASGVPARFSGSGSGTSYSLTISSMEAEDAATYYCHQRSSYTFGGGTKLEIK
B3: the “patients with anti-drug antibodies” value was found to be 1.5%.

B4: unnamed (protein)
chain 1: QVQLVESGGGVVQPGRSLRLSCTASGFTFKNYAMHWVRQAPAKGLEWVATISYDGRNIQYADSVKGRFTFSRDNSQDTLYLQLNSLRPEDTAVYYCARPVRSRWLQLGLEDAFHIWGQGTMVTVSS
chain 2: AIRMTQSPSSFSASTGDRVTITCRASQDIRNYVAWYQQKSGKAPKFLIYAASTLQSGVPSRFSGSGSGTDFTLTINSLQSEDFATYYCQQYYNSPPTFGQGTRVEIT
In the case of B4, the “patients with anti-drug antibodies” value was determined as 0%.

B5: unnamed (protein)
chain 1: EVQLVESGGGLVQPGGSLRLSCAASGFTFSRYSMSWVRQAPGKGLELVAQINSVGNSTYYPDTVKGRFTISRDNAKNTLYLQMNSLRAEDTAVYYCASGDYWGQGTLVTVSS
chain 2: DVVMTQSPLSLPVTLGQPASISCRSSQSLIYSDGNAYLHWFLQKPGQSPRLLIYKVSNRFSGVPDRFSGSGSGTDFTLKISRVEAEDVGVYYCSQSTHVPWTFGQGTKVEIK
As to B5, the “patients with anti-drug antibodies” value stood at 3.5%.

B6: unnamed (protein)
chain 1: EVQLVESGGGLVKPGGSLRLSCAASGFTFSNYAMSWVRQAPGKGLEWVATISSGGSHTYYLDSVKGRFTISRDNSKNTLYLQMNSLRAEDTALYYCARLFTGYAMDYWGQGTLVTVSS
chain 2: QIVLTQSPATLSLSPGERATMSCTASSSVSSSYLHWYQQKPGKAPKLWIYSTSNLASGVPSRFSGSGSGTDYTLTISSLQPEDFATYYCHQYYRLPPITFGQGTKLEIK
As to B6, the “patients with anti-drug antibodies” value was determined as 8%.

B7: unnamed (protein)
chain 1: QVQLVQSGSELKKPGASVKVSCKASGYTFTNYGMNWVRQAPGQGLEWMGWINTYTGEPTYADDFTGRFVFSLDTSVSTAYLQISSLKAEDTAVYYCARNPINYYGINYEGYVMDYWGQGTLVTVSS
chain 2: not shown
Take B7: the “patients with anti-drug antibodies” value stood at 9.4%.

B8: unnamed (protein)
chain 1: EVQLVESGGDLVQPGRSLRLSCVASGFTFDDYAMHWVRQAPGKGLEWVSGVSWSGSTVGYADSVKGRFTVSRDNAQKSLYLQMNSLRAEDTALYYCVKDAYKFNYYYYGLDVWGQGTTVTVSS
chain 2: EIVMTQSPATLSVSPGERATLSCRASQTILSNLAWYLQKPGQAPRLLIYGASTRATGLPARFSGSGSGTEFTLTISSLQSEDFAVYYCQQYNNWPLTFGGGTKVEIK
For the protein B8, the “patients with anti-drug antibodies” value came to 5%.

B9: unnamed (protein)
chain 1: EVQLVQSGAEVKKPGASVKVSCKASGYTFTDYNMHWVRQAPGQGLEWMGEINPNSGGAGYNQKFKGRVTMTTDTSTSTAYMELRSLRSDDTAVYYCARLGYDDIYDDWYFDVWGQGTTVTVSS
chain 2: DIQMTQSPSSLSASVGDRVTITCRASQDISNYLNWYQQKPGKAPKLLIYYTSRLLSGVPSRFSGSGSGTDFTLTISSLQPEDFATYYCQQGDTLPYTFGGGTKVEIK
As for B9, the “patients with anti-drug antibodies” value was 18.1%.

B10: unnamed (protein)
chain 1: EVQLVESGGKLLKPGGSLKLSCAASGFTFSSFAMSWFRQSPEKRLEWVAEISSGGSYTYYPDTVTGRFTISRDNAKNTLYLEMSSLRSEDTAMYYCARGLWGYYALDYWGQGTSVTVSS
chain 2: QIVLIQSPAIMSASPGEKVTMTCSASSSVSYMYWYQQKPGSSPRLLIYDTSNLASGVPVRFSGSGSGTSYSLTISRMEAEDAATYYCQQWSGYPYTFGGGTKLEIK
B10: the “patients with anti-drug antibodies” value came to 0.2%.

B11: unnamed (protein)
chain 1: EVQLVESGGGLVQPGRSLRLSCAASRFTFDDYAMHWVRQAPGKGLEWVSGISWNSGRIGYADSVKGRFTISRDNAENSLFLQMNGLRAEDTALYYCAKGRDSFDIWGQGTMVTVSS
chain 2: DIQMTQSPSSVSASVGDRVTITCRASQGISSWLAWYQQKPGKAPKLLIYGASSLESGVPSRFSGSGSGTDFTLTISSLQPEDFASYYCQQANSFPYTFGQGTKLEIK
With B11, the “patients with anti-drug antibodies” value stood at 3.8%.

B12: unnamed (protein)
chain 1: EVQLVESGGGLVQPGGSLRLSCAASGYDFTHYGMNWVRQAPGKGLEWVGWINTYTGEPTYAADFKRRFTFSLDTSKSTAYLQMNSLRAEDTAVYYCAKYPYYYGTSHWYFDVWGQGTLVTVSS
chain 2: DIQLTQSPSSLSASVGDRVTITCSASQDISNYLNWYQQKPGKAPKVLIYFTSSLHSGVPSRFSGSGSGTDFTLTISSLQPEDFATYYCQQYSTVPWTFGQGTKVEIK
With B12, the “patients with anti-drug antibodies” value turned out to be 3.5%.

B13: unnamed (protein)
chain 1: EVQLVQSGGGLVKPGGSLRLSCAASGFTFSSFAMHWVRQAPGKGLEWISVIDTRGATYYADSVKGRFTISRDNAKNSLYLQMNSLRAEDTAVYYCARLGNFYYGMDVWGQGTTVTVSS
chain 2: EIVLTQSPGTLSVSPGERATLSCRASQSIGSSLHWYQQKPGQAPRLLIKYASQSLSGIPDRFSGSGSGTDFTLTISRLEPEDFAVYYCHQSSRLPHTFGQGTKVEIK
As to B13, the “patients with anti-drug antibodies” value was 0%.

B14: unnamed (protein)
chain 1: QVQLVESGGGLVQPGGSLRLSCAASGFTFRSHWLSWVRQAPGKGLEWVSNINYDGSSTYYADSVKGRFTISRDNSKNTLYLQMNSLRAEDTAVYYCARDTYLHFDYWGQGTLVTVSS
chain 2: DIALTQPASVSGSPGQSITISCTGTSSDVGDINDVSWYQQHPGKAPKLMIYDVNNRPSGVSNRFSGSKSGNTASLTISGLQAEDEADYYCQSYAGSYLSEVFGGGTKLTVL
On to B14, for which the “patients with anti-drug antibodies” value was 0%.

B15: unnamed (protein)
chain 1: EVQLQQSGPELEKPGASVKLSCKASGYSFTGYNMNWVKQSHGKSLEWIGHIDPYYGDTSYNQKFRGKATLTVDKSSSTAYMQLKSLTSEDSAVYYCVKGGYYGHWYFDVWGAGTTVTVSS
chain 2: DIQMTQSPSSLSASLGERVSLTCRASQDIGSSLNWLQQGPDGTIKRLIYATSSLDSGVPKRFSGSRSGSDYSLTISSLESEDFVDYYCLQYVSSPPTFGAGTKLELK
With B15, the “patients with anti-drug antibodies” value worked out at 58%.

B16: unnamed (protein)
chain 1: QVQLVQSGAEVKKPGASVKVSCKASGYTFTNYGMNWVRQAPGQGLEWMGWINTYTGEPTYADDFKGRVTMTTDTSTSTAYMELRSLRSDDTAVYYCARIGDSSPSDYWGQGTLVTVSS
chain 2: EIVMTQSPATLSVSPGERATLSCKASQSVSNDVVWYQQKPGQAPRLLIYYASNRYTGIPARFSGSGSGTEFTLTISSLQSEDFAVYYCQQDYTSPWTFGQGTKLEIK
Regarding B16, the “patients with anti-drug antibodies” value was determined as 0%.

B17: unnamed (protein)
chain 1: QVQLQQPGAELVKPGASVKMSCKASGYTFTSYNMHWVKQTPGRGLEWIGAIYPGNGDTSYNQKFKGKATLTADKSSSTAYMQLSSLTSEDSAVYYCARSTYYGGDWYFNVWGAGTTVTVSA
chain 2: QIVLSQSPAILSASPGEKVTMTCRASSSVSYIHWFQQKPGSSPKPWIYATSNLASGVPVRFSGSGSGTSYSLTISRVEAEDAATYYCQQWTSNPPTFGGGTKLEIK
Regarding B17, the “patients with anti-drug antibodies” value was determined as 11%.

B18: unnamed (protein)
chain 1: EVQLVESGGGLVQPGGSLRLSCAVSGLSLTSNSVNWIRQAPGKGLEWVGLIWSNGDTDYNSAIKSRFTISRDTSKSTVYLQMNSLRAEDTAVYYCAREYYGYFDYWGQGTLVTVSS
chain 2: DIQMTQSPSSLSASVGDRVTITCLASEGISSYLAWYQQKPGKAPKLLIYGANSLQTGVPSRFSGSGSATDYTLTISSLQPEDFATYYCQQSYKFPNTFGQGTKVEVK
Regarding B18, the “patients with anti-drug antibodies” value is 5%.

B19: unnamed (protein)
chain 1: QVQLVQSGAEVKKPGASVKVSCKASGHIFSNYWIQWVRQAPGQGLEWMGEILPGSGHTEYTENFKDRVTMTRDTSTSTVYMELSSLRSEDTAVYYCARYFFGSSPNWYFDVWGQGTLVTVSS
chain 2: DIQMTQSPSSLSASVGDRVTITCGASENIYGALNWYQQKPGKAPKLLIYGATNLADGVPSRFSGSGSGTDFTLTISSLQPEDFATYYCQNVLNTPLTFGQGTKVEIK
Take B19: the “patients with anti-drug antibodies” value was determined as 0.2%.

B20: unnamed (protein)
chain 1: QVQLVQSGAEVKKPGSSVKVSCKASGYTFTDQTIHWMRQAPGQGLEWIGYIYPRDDSPKYNENFKGKVTITADKSTSTAYMELSSLRSEDTAVYYCAIPDRSGYAWFIYWGQGTLVTVSS
chain 2: DIQMTQSPSSLSASVGDRVTITCKASRDVAIAVAWYQQKPGKVPKLLIYWASTRHTGVPSRFSGSGSRTDFTLTISSLQPEDVADYFCHQYSSYPFTFGSGTKLEIK
For B20, the “patients with anti-drug antibodies” value is 24%.
